This is an account of results in patent US20240228612A1 (SICHUAN KELUN BIOTECH BIOPHARMACEUTICAL, published 2024).

In assay [1] the target is T1, human Nectin-1 antigen (human, UniProt Q15223 31-334, limits assumed).
T1 sequence (looked up): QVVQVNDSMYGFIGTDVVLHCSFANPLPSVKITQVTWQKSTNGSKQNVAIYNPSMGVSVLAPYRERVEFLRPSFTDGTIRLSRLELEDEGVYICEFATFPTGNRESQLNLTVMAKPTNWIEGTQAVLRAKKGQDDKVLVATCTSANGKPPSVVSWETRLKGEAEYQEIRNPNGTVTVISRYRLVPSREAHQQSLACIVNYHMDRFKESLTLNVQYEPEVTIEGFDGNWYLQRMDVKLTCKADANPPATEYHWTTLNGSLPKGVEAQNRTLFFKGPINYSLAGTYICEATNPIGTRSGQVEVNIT
As to the kind of experiment: ELISA, coated human Nectin-1, anti-human-HRP. The procedure:
(§1) The Nectin family includes members of Nectin-1, Nectin-2, Nectin-3 and Nectin-4, and the members share a sequence identity of about 25%, but have similar structure and function. […] The specific steps were as follows: human Nectin-1, Nectin-2, Nectin-3 and Nectin-4 antigens were diluted to 1 μg/mL with CBS coating solution, coated on an ELISA plate at 100 μL per well, and standed overnight at 4° C.; the liquid in the well was discarded on the next day, and washing was performed once with 300 μL of PBS; 100 μL of PBS (containing 2% BSA) was added, and blocking was performed at 37° C. for 2 hours; 31HZ, 56HZ, 74HZ and Enfortumab antibodies were diluted with PBS (containing 2% BSA), 100 μL was taken and added to the corresponding well, incubated at 37° C. for 2 hours; washing was performed 3 times with 300 μL of PBST; HRP-labeled goat anti-human secondary antibody was diluted at a ratio of 1:10000 with PBS (containing 2% BSA), 100 μL was taken and added to the corresponding well, incubation was performed at 37° C. for 1 hour; washing was performed 5 times with 300 μL of PBST; 100 μL of TMB color development solution was added to the corresponding well, and color development was performed at room temperature for 5-20 minutes; 50 μL of 2N H₂SO₄ was added for stopping, a microplate reader was used for collecting readings at OD450 nm, and the data were imported into Graphpad Prism for curve fitting.
Background: ELISA stands for enzyme-linked immunosorbent assay.

In assay [2] the target is human Nectin-3 antigen (human, UniProt Q9NQS3 58-404, limits assumed). In words: ELISA, coated human Nectin-3, anti-human-HRP. On the procedure: as §1
human Nectin-3 antigen, sequence (Q9NQS3 58-404 limits assumed): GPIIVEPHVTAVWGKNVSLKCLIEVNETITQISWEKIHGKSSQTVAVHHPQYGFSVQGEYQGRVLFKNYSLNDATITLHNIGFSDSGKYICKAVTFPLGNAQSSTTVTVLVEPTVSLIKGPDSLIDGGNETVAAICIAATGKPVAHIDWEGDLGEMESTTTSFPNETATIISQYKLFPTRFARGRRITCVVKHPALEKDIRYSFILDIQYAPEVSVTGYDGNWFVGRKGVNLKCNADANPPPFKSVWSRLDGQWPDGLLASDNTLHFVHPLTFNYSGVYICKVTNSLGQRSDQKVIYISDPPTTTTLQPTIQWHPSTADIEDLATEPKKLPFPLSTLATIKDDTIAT
The target of assay [3] is T2, human Nectin-4 on cell membrane surface (human, UniProt Q96NY8 32-510).
T2 construct: whole, on cells; also called A549-Nectin-4; T24-Nectin-4
T2 sequence (looked up): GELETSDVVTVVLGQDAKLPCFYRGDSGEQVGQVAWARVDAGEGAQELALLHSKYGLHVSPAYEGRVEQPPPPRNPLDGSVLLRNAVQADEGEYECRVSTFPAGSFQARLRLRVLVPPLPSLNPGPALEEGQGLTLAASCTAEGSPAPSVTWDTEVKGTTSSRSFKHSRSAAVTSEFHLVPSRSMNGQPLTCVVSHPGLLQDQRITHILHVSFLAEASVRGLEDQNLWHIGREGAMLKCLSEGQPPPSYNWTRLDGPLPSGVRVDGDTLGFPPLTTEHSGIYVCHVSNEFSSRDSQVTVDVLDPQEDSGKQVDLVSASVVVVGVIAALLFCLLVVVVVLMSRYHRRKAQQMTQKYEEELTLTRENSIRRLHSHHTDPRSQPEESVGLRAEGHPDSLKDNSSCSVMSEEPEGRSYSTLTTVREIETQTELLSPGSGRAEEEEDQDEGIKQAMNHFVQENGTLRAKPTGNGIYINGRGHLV
As to the kind of experiment: flow cytometry on NCI-N87 cells. In general terms: Flow cytometry measures light scatter and fluorescence of single cells or particles in a stream.

The target in assay [4] is T3, cynomolgus monkey Nectin-4 protein (cynomolgus monkey).
T3 construct: also called cynomolgus monkey Nectin-4 antigen
In words: ELISA, coated antigen. The text has this: (§2) The affinity of anti-human Nectin-4 humanized monoclonal antibodies to Nectin-4 protein of different species was detected by ELISA.

Assay [5] deals with T4, human Nectin-4 protein (human, UniProt Q96NY8 32-349).
T4 construct: Purified protein used for coating in ELISA and as analyte in Octet; also called human Nectin-4 antigen
T4 sequence (looked up): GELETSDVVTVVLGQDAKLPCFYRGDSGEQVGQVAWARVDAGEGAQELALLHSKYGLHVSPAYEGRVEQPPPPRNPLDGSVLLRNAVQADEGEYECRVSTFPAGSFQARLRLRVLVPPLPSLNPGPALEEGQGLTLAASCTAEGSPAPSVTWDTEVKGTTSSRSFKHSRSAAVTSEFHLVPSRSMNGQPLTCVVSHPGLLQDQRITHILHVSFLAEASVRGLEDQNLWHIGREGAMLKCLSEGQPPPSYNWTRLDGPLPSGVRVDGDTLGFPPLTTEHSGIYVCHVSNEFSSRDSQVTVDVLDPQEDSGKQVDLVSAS
As to the kind of experiment: ELISA, coated antigen.
Source text: as §2

For assay [6], the target named is T4, human Nectin-4 protein. As to the kind of experiment: ELISA, coated human Nectin-4, anti-human-HRP. An excerpt: The Nectin family includes members of Nectin-1, Nectin-2, Nectin-3 and Nectin-4, and the members share a sequence identity of about 25%, but have similar structure and function. […]
Assay [7] concerns the target T5, human Nectin-2 antigen (human, UniProt Q92692 32-360, limits assumed).
T5 sequence (looked up): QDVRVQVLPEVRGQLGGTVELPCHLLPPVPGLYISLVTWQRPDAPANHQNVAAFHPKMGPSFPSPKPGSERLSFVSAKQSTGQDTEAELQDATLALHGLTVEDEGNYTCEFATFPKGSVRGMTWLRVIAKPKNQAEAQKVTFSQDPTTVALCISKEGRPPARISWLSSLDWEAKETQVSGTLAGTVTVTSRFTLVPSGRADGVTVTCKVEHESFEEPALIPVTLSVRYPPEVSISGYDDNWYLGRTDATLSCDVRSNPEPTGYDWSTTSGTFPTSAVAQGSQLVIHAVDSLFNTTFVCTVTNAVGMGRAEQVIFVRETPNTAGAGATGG
In words: ELISA, coated human Nectin-2, anti-human-HRP. On the procedure: as §1

For assay [8], the target named is T2, human Nectin-4 on cell membrane surface. In words: flow cytometry on T47D cells. On the procedure:
The specific steps were as follows: T47D cells were digested, resuspended by centrifugation, and washed twice with PBS; the cells were resuspended in PBS (containing 1% BSA), and spread into a 96-well tip-bottom plate at 3×10⁵ cells/well, with a volume of 50 μl per well; 50 μL of the antibody to be tested was added to each well, starting at a final concentration of […], 4-fold gradient dilution, a total of 10 concentration points; Human IgG was used as a negative control; after being mixed well, the resulting mixture was reacted in the dark at 4° C. for 1 hour; washing was performed 3 times with PBS, FITC-labeled anti-human Fc secondary antibody (brand: BioLegend, product number: 409322) was added, incubated at 4° C. for 0.5 hours in the dark; washing was performed 3 times with PBS, and detection was carried out using a flow cytometer (flow cytometer brand: Beckman, model: Cytoflex).

B1: anti-human Nectin-4 humanized monoclonal antibody 56HZ (antibody, human IgG1, kappa, V domains shown)
VH: QVQLQESGPGLVKPSQTLSLTCTVSGYFNSITSDYDWHWIRHHPGKGLEWMGYISFSGRTYYNPSLKSRVTISHDTSKNQFSLKLSSVTAADTAVYYCARGNYDGFDYWGQGTLVTVSS
VL: DIVLTQSPATLSLSPGERATLSCRASQNIGTSIHWYQHKPGQSPRLLIKFASESISGIPARFSGSGSGTDFTLTISSLEPEDFAVYYCQQSKSWPTYTFGGGTKVEIKR
notes: Human IgG1 heavy chain constant region, human kappa light chain constant region; expressed in CHO-E cells
Regarding B1, the binding result in assay [1], in assay [2] and in assay [7] was “no binding” in each case. Further, the values for the 50% effective concentration (EC50) in assay [3], in assay [4] and in assay [5] were 0.0164 µg/mL, 9.85 ng/mL and 9.48 ng/mL, respectively. Moreover, the EC50 (read off the curve) – broadly, the midpoint of the concentration-response curve – in assay [6] was ~6 ng/mL.

B2: anti-human Nectin-4 humanized monoclonal antibody 74HZ (antibody, human IgG1, kappa, V domains shown)
VH: QVQLVQSGAEVKKPGSSVKVSCKASGYTFINYWMNWVRQAPGQGLEWIGMIHPSDSATRLNQSFQGRVTLTVDKSTSTAYMELSSLRSEDTAVYYCARWGNFYTVNAWYYFDYWGQGTLVTVSS
VL: DIVITQSPDSLAVSLGERATINCKSSQTLLNSNTQKNYLAWYQQKPGQSPKLLFYFASTRESGVPDRFSGSGSGTDFTLTISSLQAEDVAVYFCQQHYSTPLTFGQGTKLEIKR
notes: as for B1
For B2, the binding result in assay [1], in assay [2] and in assay [7] was “no binding (tested: 10000 ng/mL)” in each case. The values for the EC50 in assay [8], in assay [4] and in assay [5] were 0.0223 µg/mL, 6.73 ng/mL and 8.34 ng/mL, respectively.

B3: anti-human Nectin-4 humanized monoclonal antibody 31HZ (antibody, human IgG1, kappa, V domains shown)
VH: QVQLVQSGAEVKKPGSSVKVSCKASGYTFTDYWMNWVRLAPGQGLEWIGMIHPSDSETRLNQKFQGRVTLTVDKSTSTAYMELSSLRSEDTAVYYCARWDFRIYYAMDYWGQGTLVTVSS
VL: DVVITQSPDSLAVSLGERATINCKSSQSLLNTNSQKNYLAWYQQKPGQSPKLLVYFASTRESGVPDRFSGSGSGTDFTLTISSLQAEDVAVYFCQQHYSTPLTFGGGTKVEIKR
notes: as for B1
For B3, the binding result in assay [1], in assay [2] and in assay [7] was “no binding (tested: 10000 ng/mL)” each time. The 50% effective concentration (EC50) (in general, the concentration that produces a half-maximal response) in assay [8] was 0.0123 µg/mL; in assay [4] it was 4.45 ng/mL; in assay [5] it was 3.6 ng/mL.
